Test results published in PMC5969902.
“And” between values parts separate entries of the source, which are not always exact repeats. Equal values may be shown once.

What was measured:
[1] = biological target: actin filament barbed ends elongating from unlabeled rabbit skeletal muscle actin (rabbit) (UniProt P68135); assay: single-filament microfluidics with fluorescence microscopy; survival of formin-bound barbed ends, exponential fit; 1 µM unlabeled actin, no profilin; KCl and configuration not given
[2] = biological target: actin filament barbed ends elongating from unlabeled rabbit skeletal muscle actin (rabbit) (UniProt P68135); assay: single-filament microfluidics with fluorescence microscopy; survival of formin-bound barbed ends, exponential fit; 0.5 µM unlabeled actin, no profilin; KCl and configuration not given
[3] = biological target: actin filament barbed ends elongating from unlabeled rabbit skeletal muscle actin (rabbit) (UniProt P68135); assay: single-filament microfluidics with fluorescence microscopy; survival of formin-bound barbed ends, exponential fit; 1 µM unlabeled actin, 5 µM profilin; KCl and configuration not given
[4] = biological target: actin filament barbed ends elongating from unlabeled rabbit skeletal muscle actin (rabbit) (UniProt P68135); assay: single-filament microfluidics with fluorescence microscopy; survival of formin-bound barbed ends, exponential fit; 2 µM unlabeled actin, 5 µM profilin; KCl and configuration not given
[5] = biological target: actin filament barbed ends elongating from unlabeled rabbit skeletal muscle actin (rabbit) (UniProt P68135); assay: single-filament microfluidics with fluorescence microscopy; survival of formin-bound barbed ends, exponential fit; 3 µM unlabeled actin, 5 µM profilin; KCl and configuration not given
[6] = biological target: actin filament barbed ends elongating from unlabeled rabbit skeletal muscle actin (rabbit) (UniProt P68135); assay: single-filament microfluidics with fluorescence microscopy; survival of formin-bound barbed ends, exponential fit; 1 µM unlabeled actin, 10 µM profilin; KCl and configuration not given
[7] = biological target: actin filament barbed ends elongating from unlabeled rabbit skeletal muscle actin (rabbit) (UniProt P68135); assay: single-filament microfluidics with fluorescence microscopy; survival of formin-bound barbed ends, exponential fit; 2 µM unlabeled actin, 10 µM profilin; KCl and configuration not given
[8] = biological target: actin filament barbed ends elongating from unlabeled rabbit skeletal muscle actin (rabbit) (UniProt P68135); assay: single-filament microfluidics with fluorescence microscopy; survival of formin-bound barbed ends, exponential fit; 3 µM unlabeled actin, 10 µM profilin; KCl and configuration not given
[9] = biological target: mDia1 FH1 (UniProt O08808); conditions: cited from earlier work

profilin, sequence (P07274 whole entry): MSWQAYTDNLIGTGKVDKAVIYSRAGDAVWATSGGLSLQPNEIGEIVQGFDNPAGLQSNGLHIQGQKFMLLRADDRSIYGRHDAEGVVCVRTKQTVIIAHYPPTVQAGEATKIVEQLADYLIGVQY

Substance: mDia1(FH2-DAD) (from UniProt O08808 1-1255) (domain or fragment)
- koff [1]: 0.0047 s⁻¹ and 0.0089 s⁻¹
- koff [2]: 0.004 s⁻¹
- koff [3]: 0.0031 s⁻¹ and 0.0025 s⁻¹ and 0.0051 s⁻¹
- koff [4]: 0.0042 s⁻¹
- koff [5]: 0.0063 s⁻¹ and 0.0085 s⁻¹
- koff [6]: 0.0025 s⁻¹ and 0.0036 s⁻¹
- koff [7]: 0.00226 s⁻¹
- koff [8]: 0.0064 s⁻¹

Substance: profilin (from UniProt P07274)
- Kd [9]: > 100 µM
